{"source": "paper PMC10344873", "about": "(2023)", "parents": {"B1": {"name": "wild type p16-NLuc (mouse p16 tagged with NanoLuc luciferase) [mouse] / 3×Flag-tagged wild type CDK6 [mouse (by the printed Gene ID 12571; not stated in words for CDK6)] (parent complex)", "chain 1": "MESAADRLARAAAQGRVHDVRALLEAGVSPNAPNSFGRTPIQVMMMGNVHVAALLLNYGADSNCEDPTTFSRPVHDAAREGFLDTLVVLHGSGARLDVRDAWGRLPLDLAQERGHQDIVRYLRSAGCSLCSAGWSLCTAGNVAQTDGHSFSSSTPRALELRGQSQEQS", "chain 2": "MEKDSLSRADQQYECVAEIGEGAYGKVFKARDLKNGGRFVALKRVRVQTSEEGMPLSTIREVAVLRHLETFEHPNVVRLFDVCTVSRTDRETKLTLVFEHVDQDLTTYLDKVPEPGVPTETIKDMMFQLLRGLDFLHSHRVVHRDLKPQNILVTSSGQIKLADFGLARIYSFQMALTSVVVTLWYRAPEVLLQSSYATPVDLWSVGCIFAEMFRRKPLFRGSSDVDQLGKILDIIGLPGEEDWPRDVALPRQAFHSKSAQPIEKFVTDIDELGKDLLLKCLTFNPAKRISAYGALNHPYFQDLERYKDNLNSHLPSNQSTSELNTA"}}, "data": [{"variants_of": "B1", "assay": "LUMIER assay (Flag IP, on-bead NanoLuc bioluminescence); HEK293T cells, transient expression; n = 6 independent experiments; signals normalised on input; parent: 1; read off a plot", "values": [{"variant": "chain 1 G47D", "ratio to parent": "~0.08"}, {"variant": "chain 1 P73L", "ratio to parent": "~0.6"}, {"variant": "chain 1 G15S", "ratio to parent": "~0.18"}]}, {"variants_of": "B1", "assay": "LUMIER assay (Flag IP, on-bead NanoLuc bioluminescence); HEK293T cells, transient expression; n = 6 independent experiments; signals normalised on input; parent: 1; read off a plot", "remark": "another data set of the same source", "values": [{"variant": "chain 2 D102N", "ratio to parent": "~0.5"}, {"variant": "chain 2 D110H", "ratio to parent": "~0.6"}]}]}
